Earlier results in publication PMC8999013.

Biological target: integrin α7B cytoplasmic domain (Homo sapiens) (UniProt Q13683)
Test: intrinsic tryptophan fluorescence

Chain of integrin α7B cytoplasmic domain (Homo sapiens) (Q13683 1104-1181): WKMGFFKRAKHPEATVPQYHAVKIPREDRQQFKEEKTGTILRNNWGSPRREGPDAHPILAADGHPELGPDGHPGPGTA
Chain of CIB2 (O75838 whole entry): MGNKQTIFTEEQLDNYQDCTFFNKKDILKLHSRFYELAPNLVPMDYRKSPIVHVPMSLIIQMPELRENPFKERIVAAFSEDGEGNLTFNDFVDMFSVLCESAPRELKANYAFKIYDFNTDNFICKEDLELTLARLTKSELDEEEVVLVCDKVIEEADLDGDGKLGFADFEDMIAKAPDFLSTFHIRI

Kd: 304 nM
Substance: CIB2 (from UniProt O75838)
